In the test the target is human Macrophage Expressed Gene-1 (MPEG-1) soluble ectodomain, wild type (human) (UniProt Q2M385). Description: cryo-EM structure.

“human Macrophage Expressed Gene-1 (MPEG-1) soluble ectodomain, wild type (from UniProt Q2M385 17-653) (domain or fragment)” came in with a stoichiometry N (subunits per ring) of 16.

These data come from article doi:10.1101/580712.
